The numbers were not newly measured in PMC6535718 (Journal of the American Chemical Society, 2019), which cites them from elsewhere.

By Kd is commonly meant the free concentration of one partner at which half of the binding sites on the other are occupied at equilibrium, for simple one-to-one binding.

This series addresses BfrB. The note with it: read-out: Kd of Bfd binding to BfrB; complex in solution.

B1: Bfd: bacterioferritin-associated ferredoxin, cognate partner of BfrB in P. aeruginosa (protein, UniProt Q9HY80 1-73, looked up)
Bacterioferritin-associated …: MYVCLCQGVTDNQIRDAIYEGCCSYREVREATGVGTQCGKCACLAKQVVRETLNDLQSAQPVPAFGTTAFVAA
Consider B1, for which the dissociation constant Kd was around 3000 nM.
